B1: TPR t1 (parent)
chain: GACCAAUCUGCCCUCAGAGCUCGAGAACAUCUUCGGAUGCAGAGGAGGCAGGCUUCGGUGGCGCGAUAGCGCCAACGUCCUCAACCUCCAAUGCAUCCCACCACAUGAUGAUGCCUGAAGAGCCUUGGUUUUUUG

Variants of: B1
Test: polymerase ribozyme fitness, log enrichment relative to wild type (log ratio); higher = more active; in vitro selection for triplet polymerase activity
Method in brief: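 For each subunit of a heterodimeric triplet polymerase ribozyme, a mutant library was built by PCR and transcribed, then taken through a single in vitro selection round in triplicate. Selection involved annealing to a biotinylated primer, the partner subunit and triplets, incubation frozen at −7 °C, gel excision of extended constructs, capture on streptavidin beads and RT-PCR. Genotypes were retained after Illumina sequencing of inputs and outputs only with ≥10 input reads and ≥1 read in each output. Fitness is defined as the logarithm of a genotype's enrichment relative to wild-type enrichment, using inverse-variance-weighted averages across replicates, with the logarithm taken to base 2.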

Variant | polymerase ribozyme fitness (log ratio)
GACCAAUCUGCCUUCAGAGGUCGAGAACAUCUUCGGAUGCAGAGGAGGCAGGCUUCGGUGGCGAGAUAGCGCUAACGUCCUCAACCUCCAAUGCAUCCCACCAAAUGAUUAUGCCUGAAGUGCCUUGGUUUUUUG [C13U C20G C64A C73U C104A G110U A121U] | -7.37
GACCAAUCUGCCCUCAGAGCUCGAGAGCAUCUUCGGAUGCAGAGGAGGCAGGCUUCGGUGCCGCGAUAGCGCCAACGUCCUCAACCUGCAAUGCAUCCCACCACAUGAUGAUGCCUGAAGAGCCUUGAUUUUUUG [A27G G61C C88G G128A] | -7.26
GACCAAUCUGGCCUCAGCGCUCGAGAACAUCUUCGGAUGCAGAGGAGGCAGGCUUCGGUGGCGCGAUAGCGCCAACGUCCUCAACCUCCAAUGCAUCCCACCACAUGAUGAUGCCUGAAGAGCCUUGGUUUUUUG [C11G A18C] | -1.71
GACCAAUCUGCCCUCAGAGCUCGAGAACAUCUUCGGAUGCAGUGGAGGCAGGCUUCGGUGGCGCGAUAGCGCCAACGUCCUCAACCUCCAAGGCAUCCCACCACAUGAUGAUGCCUGAAGAGCCUUGGUUUUUUG [A43U U92G] | -1.81
GACCAAUCUGCCCUCAGAGCUCGAGAACAUCUUCGGAUGCAGAGGAGUCAGGCUUCAAUGGCGCGAUAGCGCCAACGUCCUCAACCUCCAAUGCAUCCCACCACAUGAUGAUGCCUGAAGAGCCUUGGUUUUUUG [G48U G57A G58A] | -0.738
GACCAAUCUGCCCUCAGAGCUCGAGAACAUCUUCGGAUGCAGAGGAGGCAGGAUUCGGUGGGGCGAUAGCGCCAACGUCCUCAACCUCCAAUGCAUCCCACCACAUGGUGAUGCCUGAAGAGCCUUGGUUUUUUG [C53A C62G A108G] | -3.91
GACCACUUUGUCCUCAGAGCUCGAGAACAUCUUCGGAUGCAGAGGAGGCAGGCUUCGGUGGCGCGAUAUCGCCAACGUCCUCAACCUCCAAUGCAUCCCACCAGAUGAUGAUGCCUGAAGAGCCUUGGUUUUUUG [A6C C8U C11U G69U C104G] | -5.29
GACCAAUCUGCCCUCAGAGCCCGAGAACAUCUUCGGAUGCAGAGCAGGCAGGCUUUGGUGGCGCGAUAACGCCAACGUCCUCAACCUCCAAUGCAUCCCACCACAUGAAGUUGCCUGAAGAGCGUUGGUUUUUUG [U21C G45C C56U G69A U109A A111U C124G] | -8.04
GACCAAUCUGCCCUCAGAGCUCGAGAACAUCUUCGAAUGCAGAGGAGGCAGGCUUCGGCGGCGCGAUAGCGCCAACGUCCUCAACCUCCAAUGCAUCCCACCACAUGAUGAUGCCUGAAGAGCCUGGGUUUUUUG [G36A U59C U126G] | -2.55
GACCAAUCUGCCCUCAGAGCUCGAGAACAUCUUCGGAUGCAGAGGAGGCAGGCUUCGGUGCCGCGAUAGCGCCAACGUCCUCAACCUCCAAUGCAUCCCACCACAUGAUGAUGCCUGAACAGCCUUGGUUUUUUG [G61C G120C] | -1.04
GACCAAUCUGCCCUCAGAGCUCGAGAACAUCUUCGGAUGCAGAGGAGGCAGGCUUCGGUGGCGCGAUAGCGCGAACGUCCUCAACCUCCAAUGAAUCCCACCACAUGAUGAUGCCUGAAGAGCCUUGGUUUUUUG [C73G C94A] | -2.58
GACCAAUCUGCCCUCAGAGCUCGAGAACAUCUUCGGAUGCAGAGGGGGCAUGCUUCGGUGGCGCGAUAGCGCCAACGUCCUCAACCUCCAAUGCAUCCCACCACAUGAUGAUGCCUGAAGAGCCUUGGUUUUUUG [A46G G51U] | -2.98
GCCCAAUCGGCCCUCAGAGAUCGAGAACAUCUUCGGAUGCAGAGGAGGCAGGCUUCGGUGGCGCGAUAGCACCAACGUCCUCAACCUCCAAUGCAUCCCACCACAUGAUGAUGCCUGAAGUGCCUUGGUUUUUUG [A2C U9G C20A G71A A121U] | -3.49
GACCAAUCUGCCCUCAGAGCUCGAGAUCAUCUUCGGAUGAAGAGGAGGCAGGCUUCGGUGGCGCGAUAGAGCCAACGUCCUCAACCUCCAAUGCAUCCCACCACAUGAUGAUGCCUGAAGAGCCUUGGUUUUUUG [A27U C40A C70A] | -6.74
GACCAAUCUGCCCUCAGAGCUCGAGAACAUCUUCGGAUGCAGAGGAGGCAGGCUUCGGUGGCGCGAUAGCGCCAACGUCCUAAACGUCCAAUGCAUCCCACCACAUGAUGAUGCCUGAAGAGCCUUGGUUUUUUG [C82A C86G] | -1.3
GACCAAUCUGCCCUCAGAGCUCGAGAACAUCUUCGGAUGCAGAGGAUGCAGGCUUCGGUGGCGCGAUAGCGCCAACGUCCUCAACCUCCAAUGCAUCCCAUCACAUGAUGAUGUCUGUAGAGCCUUGGUUUUUUG [G47U C101U C114U A118U] | -5.66
GACCAAUUUGCCCACAGAGCUCGAGAACAUCUUCGGAUGCAGAGGUGGCAGGCUUUGGUGGCGCGAUAGCGCCAACGUCCUCAACCUCCAAUGCAUCCCACCACAUGAUGAUGCCUGAAGAGCCUUGGUUUUUUG [C8U U14A A46U C56U] | -1.92
GACCAAUCGGCCCUCAGAGCUCGAGAACAUCUUCGGAUGCAGAGGAGGCAGGCUUCGGUGGCGCGAUAGCGCCAACGUCCUCAACCUCCAAUGAAUCCCACCACAUGAUGAUGCCUGAAGAGCCUUGGUUUUUUG [U9G C94A] | -0.976
GACCAAUCUGUCCUCAGAGCUCGAGAACAUCUUCGGAUGCAGAGGAGGCAGGCUUCGGUGGCGCGAUAGCGCCAACGUCCUCAACCUCCAAUGCAUCCCACCACAUGAUGAUGCCUGAAGAACCUUGGUUUUUUG [C11U G122A] | -1.12
GACCAAUCUGCCCUCAGAGCUCGAGAACGUCUUCGGAUGCAGAGCAGGCAGGCUUCGGUGGCGCGAUAGCGCCAACGUCCUCAACCUCCAAUGCAUCCCACCACAAGAUGAUGCCUGAAGAGCCUUGGUUUUUUG [A29G G45C U106A] | -1.67
GACCAAUCUGCCGUCAGAGCUCGAGAACAUCUUCGGAUGCAGAGGAGGAAGGCUUCGGUUGCGCGAUAGCGCCAACGUCCUCAACCUCCAAUGCAUCCCACCACAUGAUGAUGCCUGAAGAGCCUUGGUUUUUUG [C13G C49A G60U] | -2.3

Variant | polymerase ribozyme fitness (log ratio)
GACCAAUCUGCCCUCAGAGCUCGAGAACAUCUUCGGAUGCAGAGGAGGCAGGCUUCGGUGGCGCGAUAGCGCCAACGUCCUCAACCUCCAAAGCAUCCCACCACAUGAUGAUGUCUGAAGAGCCUUGGUUUUUUG [U92A C114U] | -3.08
GACCAAUAUGCCCUCAGAGCUCGAGAACAUCUUCGGAUGCAGAGGAGGCAGGCUUCGGUGGCGCGAUAGCGCCAACGUACUCAACCUCCAAUGCAUCCCACCACAUGAUGAUGCCUGAAGAGCCUUGGUUUUUUG [C8A C79A] | -0.182
GACCGAUCUGCCCUCAGUGCUCGAGAACAUCUUCGGAUGCAUAGGAGGCAGCCUUCGGUGGCGCGAUACCGCCAACGUCCUCAACCUCCAAUGCAUCCCACCACAUGAUGAUGCCUGAAGAGCCUUGGUUUUUUG [A5G A18U G42U G52C G69C] | -3.05
GACCAAUCUGCCCUCAGAGCUCGAGAACAUCUUCGGAUGCAGAGUAGGCAGGCUUCGGUGGCGCGAUAGCGACAACGUCCUCAACCACCAAUGCAUCCCACCACAUGAUGAUGCCUGAAGCGCCUUGGUUUUUUG [G45U C72A U87A A121C] | 0.113
GACCAAUCUGCCCUCAGAGCUCGAGAACAUCUUCGGAUGCAGAGGAGGCAGGCUUCGGUGGCGCGAUAGCGCCAACGGCCUCAACCUCCAAUGCAUCCCACCACAUGAUGAUGCCUGAAGAGCCUUGGUUUUUUG [U78G] | -0.246
GACCAAUAUGCCCUCAGAGCUCGAGAACAUCUUCGGAUGCAGAGGAGCCAGGCUUCGGUGGCGCGAUAGCGCCAACGUCCUCAACCUCCAAUGCAUCCCACCACAUGAUGAUGCCUGAAGAGCCUUGGUUUUUUG [C8A G48C] | -0.457
GACCAGUCUGCCCUCAGAGCUCGAGAACAUCUUCGGAUGGAGAGGAGGCAGGCUUCGGAGGCGCGAUAGCGCCAACGUCCUCAACCUCCAAUGCAUCCCACCUCAUGAUGAUGCCUGAAGAGCCUUGGUUUUUUG [A6G C40G U59A A103U] | -6.42
GACCAAUCUGCCCUCAGAGCUCGAGAACAUAUUCGGAUGCAGAUGAGGCAGGCUUCGGUGGCGCGAUAGCGCCAACGUCCUCAACCUCCAAUGCAUCCCAUCACAUGAUGAUGCCUGAAGAGCGUUGGUUUUUUG [C31A G44U C101U C124G] | -5.62
GACCAAUCUGCCCUCAGAGCUCGAGAACAUCUUCGGAUGCAGAGGAGUCAGGCUUCGGUGGCGCGAUAGCGCCAACGUCCUCAACCUCCAAUGCAUCCCACCACAUGAUAAUGCCUGAAGAGCGUUGGUUUUAUG [G48U G110A C124G U133A] | -1.53
GACCAAUCUGCUCUCAGAGCUCGAGAACAUCUUCGGAUGCAGAGGAGGCAGGCUUCGGUGGCGCGAUAGCGCCAACGUCCUCAACCUCCAAUGCAUCCCACCACAAGAUGAUGCCUGAAGAGCCUUGGUUUUUUG [C12U U106A] | 0.462
GACCAAUCUGCCCUCAGAGCUCGAGAACAUCUUCGGAUGCAGAAGAGGCAGGCUUCGGUAGCGCGAUAGCGCCAACGUCCUCAACCUCGAAUGCAUCCCAACAUAUGAUGAUGCCUGAAGAGCCUUGGUUUUUUG [G44A G60A C89G C101A C104U] | -2.79
GACCAAUCUGCCCUCAGAGCUCGAGAACAUCUUCGGAUGCAGAGGAGGCAGGCAGCGGUGACGCGAUAGCGCCAACGUCUUCAACCUCCAAUGCAUCCCACCACAUGAUGAUGCCUGAAGAGCCUUGGUUUUUUG [U54A U55G G61A C80U] | -0.516
GAUCAAUCUGCCCUCAGAGCUCGAGAACAUCUUCGGAUGCAGAGGAGGCAGGCUUCGGUGGCGCGAUACCGCCAACGUCCUCAACCUGCAAUGCAGCCCACCACAUGAUGAUGCCUGAAGAGCCUUGGUUUUUUG [C3U G69C C88G U96G] | -2.75
GACCAAUCUGCACUCAGAGCUCGAGAACAUCUUCGGAUGCAGAGGAGGCAGGCUUCGGUGGCGCGAUGGCGCCAACGUCCUCACCCUCCAAUGCAUCCCACCACAUGAUGAUGCCUGAAGAGCCUUGGUUUUUUG [C12A A68G A84C] | -4.19
GACCAAUCUGCACUCAGAGCUCGAGAACAUCUUCGGAUGCAGAGGUGGCAGGCUUCGGUGGCGCGAUAGCGGCAACGUCCUCAACCUCCAAUGCAUCCCACCACAUGAUGAUGUCUGAAGAGCCUUGGUUUUUUG [C12A A46U C72G C114U] | -4.57
GACCAAUCUGCCCUCAGAGCUCGAGAACAUCUUCGGAUGCAGAUGAGGCAGGCUUCGGUGGCGCGAUAGCGCCAACGUCCUCAACCUCCAAUGCAUCCCACCACAUGAUGAUGCCUGAAGGGCCUUGGUUUUUUG [G44U A121G] | 0.89
GACCAAUCUGCCCUCAGAGCUCCAGAACAUCUUCGGAUGCAGAGGAGGCAGGCUUCGGCGGCGCGAUAGCGCCAACGUCCUCAACCUCCAAUGCAUCUCAACACAUGAUGACGCCUGAAGAGCCUUGGUUUUUUG [G23C U59C C98U C101A U112C] | -7.02
GACCAAUCUGCCCUCAGAGCUCGAGAACAUCUUCGGAUGCAGAGGAGGCAGGCUUCGGUGGCGCGAUAGCGCCAACGUCCUCAUCCUCCAAUGCAUCCCACCACAUGAUGAUGCCUGAAGAGCAUUGGUUUUUUG [A84U C124A] | 1.73
GACCAAUCUGCCCUCAGAGCUCGAGAGCAUCUUCGGAUGCAGAGGAGGCAGGCUUCGGUGGUGCGAUAGCGCCAACGUCCUCAACCUCCAAUGAAUCCCACCACACGAUGAUGCCUGAAGAGCCUUGGUUUUUUG [A27G C62U C94A U106C] | -4.15
GACCAAUCUGCCCUCAGAGCUCGAGAACAUCUUCGGAUGCAGAGGAGGCAGGCUUCGGUGGCGCGAUAACGCCAACGUCCUCAACCUCCAAUGCAUCCCACCAUAUGAUGAUGCCUGAAAAGCCUUGGUUUUAUG [G69A C104U G120A U133A] | -0.971
GACCAAUCUGCCCUCAGAGCUCGAGAACAUCUUCGAAUGCAGAGGAGGCAGGCUUCGGUGGCGCGAUAGCGCCAACGUCCACAACCUCCAAUGCAUCCCACCACAUGAUGAUGCCUGAAGAGCCUUGGUUUUUUG [G36A U81A] | -1.3
